1 molecule from PMC3107735 can be followed below.

In one data set the target is human thrombin (human, UniProt P00734;P00734 328-363;364-622). Kind of data set: ITC.
For a further data set, the target named is alpha-thrombin (bovine, UniProt P00735;P00735 318-366;367-625). In words: ITC.

With GGTTGGTGTGGTTGG (structured_DNA) [thrombin-binding DNA aptamer (15-mer, Bock et al.)], the binding result with human thrombin was “binds”. Also, the equilibrium dissociation constant (Kd) with alpha-thrombin stood at 111 nM.

In general, Kd refers to the free concentration of one partner at which half of the binding sites on the other are occupied at equilibrium, for simple one-to-one binding. The low end stands for higher affinity, the high end for lower affinity.
